In paper PMC2927781 one finds fold increase in affinity over free PHD (Pygo1), stoichiometry N and Kd data, which are given here for one substance.

What all share (test): ITC; H3K4me2 peptide injected (19 x 2 ul) into the protein; 25 °C; 25 mM Tris pH 8.0, 100 mM NaCl; iTC 200; one-site model
Background: ITC needs no label: the signal is the heat of the interaction.

The target of test [1] is PHD_(Pygo1)–HD1_(BCL9) complex (6×His-tagged, PHD linked to HD1) (human) (UniProt Q9Y3Y4).
In test [2] the target is PHD_(Pygo2)–HD1_(BCL9) complex (human) (UniProt Q9BRQ0).
In test [3] the target is PHD_(Pygo2)–HD1B9L complex with Pygo2 W377F (human) (UniProt Q9BRQ0).
Test [4] has as its target free PHD finger of human Pygo2 (human).
The target of test [5] is PHD_(Pygo1)–HD1B9L complex (human) (UniProt Q9Y3Y4).
In test [6] the target is free PHD finger of human Pygo1 (human).
Test [7] addresses PHD_(Pygo2)–HD1B9L complex with Pygo2 I344A (human) (UniProt Q9BRQ0).
The target of test [8] is PHD_(Pygo2)–HD1B9L complex (6×His-tagged, PHD linked to HD1; ITC construct) (human) (UniProt Q9BRQ0).

On to “15-mer H3K4me2 histone tail peptide (histone H3 tail dimethylated at lysine 4)”, for which the fold increase in affinity over free PHD (Pygo1) in test [1] amounted to 2 fold. The stoichiometry N in test [1], in test [2], in test [4], in test [5], in test [6] and in test [8] was 1 throughout. In addition, the dissociation constant (Kd) came to 11.5 µM in test [3]; 4.95 µM in test [4]; 5.93 µM in test [6]; 19.5 µM in test [7]; 1.83 µM in test [8].

The term stoichiometry N denotes a count of units in the complex or per binding partner. Broadly, the Kd is the free concentration of one partner at which half of the binding sites on the other are occupied at equilibrium, for simple one-to-one binding. High values mean a looser complex, low ones a tighter complex.
